# Experimental data taken from article PMC8777168 (2022).
# B1: STUB1, expressed from a plasmid in 293T cells [not stated] / MIF in 293T cells [not stated] (parent complex)
# chain 1: MKGKEEKEGGARLGAGGGSPEKSPSAQELKEQGNRLFVGRKYPEAAACYGRAITRNPLVAVYYTNRALCYLKMQQHEQALADCRRALELDGQSVKAHFFLGQCQLEMESYDEAIANLQRAYSLAKEQRLNFGDDIPSALRIAKKKRWNSIEERRIHQESELHSYLSRLIAAERERELEECQRNHEGDEDDSHVRAQQACIEAKHDKYMADMDELFSQVDEKRKKRDIPDYLCGKISFELMREPCITPSGITYDRKDIEEHLQRVGHFDPVTRSPLTQEQLIPNLAMKEVIDAFISENGWVEDY
# chain 2: PMFIVNTNVPRASVPDGFLSELTQQLAQATGKPPQYIAVHVVPDQLMAFGGSSEPCALCSLHSIGKIGGAQNRSYSKLLCGLLAERLRISPDRVYINYYDMNAANVGWNNSTFA
# Variants of: B1
# Assay: co-immunoprecipitation (IP: Myc, IB: MIF) and western blot, band quantification; 293T cells transfected for 24 h with STUB1 mutation plasmids; triplicate experiments, mean ± SD; read off a plot
row,Variant,response [MIF/Input ratio]
1,chain 1 K143A,~0.22
2,chain 1 W147A,~1
3,chain 1 R66A,~0.25
4,chain 1 S149A,~1
